Test results reported in the supplement of paper PMC7125110.
± gives the standard error. Variants at the floor of the assay were thinned out.

B1: glmS ribozyme (parent)
chain: AUAAAAGCGCCAGAACUACAGAAAUGUAGUUGACGAGGAGGAGGUUUAUCGAAUUUUCGGCGGAUGCCUCCAAA

What was measured:
Conditions in all cases: with glucosamine-6-phosphate
glucosamine-6-phosphate [1] = variants of: B1; experiment: self-cleavage kobs at 40 uM GlcN6P; higher = faster cleavage; RNA array
Summary of the method: (§1)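 Over ~14 h at 37 °C, tiles were imaged as glucosamine-6-phosphate (40 μM to 10 mM) in HEPES/KCl/Mg(OAc)2 buffer flowed across sequenced MiSeq chips. The chips carried barcoded ribozyme variants transcribed in situ by E. coli RNA polymerase and tracked with a hybridised Cy3 probe. After normalisation to baseline and to non-cleaving reference variants, one- or two-exponential decay fits of per-tile medians gave kobs. kcat and KM followed from weighted Michaelis–Menten fits across concentrations.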

glucosamine-6-phosphate [2] = variants of: B1; experiment: self-cleavage kobs at 160 uM GlcN6P; higher = faster cleavage; RNA array
Summary of the method: as §1

glucosamine-6-phosphate [3] = variants of: B1; experiment: self-cleavage kobs at 640 uM GlcN6P; higher = faster cleavage; RNA array
Summary of the method: as §1

glucosamine-6-phosphate [4] = variants of: B1; experiment: self-cleavage kobs at 2500 uM GlcN6P; higher = faster cleavage; RNA array
Summary of the method: as §1

glucosamine-6-phosphate [5] = variants of: B1; experiment: self-cleavage kobs at 10000 uM GlcN6P; higher = faster cleavage; RNA array
Summary of the method: as §1

Variant	self-cleavage kobs at 40 uM GlcN6P (glucosamine-6-phosphate [1])	self-cleavage kobs at 160 uM GlcN6P (glucosamine-6-phosphate [2])	self-cleavage kobs at 640 uM GlcN6P (glucosamine-6-phosphate [3])	self-cleavage kobs at 2500 uM GlcN6P (glucosamine-6-phosphate [4])	self-cleavage kobs at 10000 uM GlcN6P (glucosamine-6-phosphate [5])
U49C G63A A64C	< 1e-05 s⁻¹	–	–	–	–
C8A G35C	< 1e-05 s⁻¹	< 1e-05 s⁻¹	< 1e-05 s⁻¹	< 1e-05 s⁻¹	< 1e-05 s⁻¹
C34U G40C	< 1e-05 s⁻¹	–	< 1e-05 s⁻¹	–	< 1e-05 s⁻¹
C10U G37C G66A	< 1e-05 s⁻¹	–	–	–	–
G35U C58G G62U	< 1e-05 s⁻¹	–	–	–	–
G29C A42C G43C U54A	< 1e-05 s⁻¹	–	–	–	–
U49G G51A	< 1e-05 s⁻¹	< 1e-05 s⁻¹	< 1e-05 s⁻¹	< 1e-05 s⁻¹	< 1e-05 s⁻¹
U30A G35A G59A C71G	< 1e-05 s⁻¹	–	–	< 1e-05 s⁻¹	–
G37U A39G A42U C70U	< 1e-05 s⁻¹	–	–	–	–
A36U C58U	< 1e-05 s⁻¹	–	< 1e-05 s⁻¹	< 1e-05 s⁻¹	< 1e-05 s⁻¹
G7U U45G C61A	< 1e-05 s⁻¹	–	–	–	< 1e-05 s⁻¹
A6U A12U U65G	< 1e-05 s⁻¹	–	–	–	–
U30G C61U	< 1e-05 s⁻¹	–	< 1e-05 s⁻¹	< 1e-05 s⁻¹	–
A53G G62A	< 1e-05 s⁻¹	–	< 1e-05 s⁻¹	–	< 1e-05 s⁻¹
G44U C68A	< 1e-05 s⁻¹	< 1e-05 s⁻¹	< 1e-05 s⁻¹	–	< 1e-05 s⁻¹
G44C G60A U69G	< 1e-05 s⁻¹	–	–	–	–
G41A C50G C61U	< 1e-05 s⁻¹	< 1e-05 s⁻¹	< 1e-05 s⁻¹	< 1e-05 s⁻¹	< 1e-05 s⁻¹
G7U G60C	< 1e-05 s⁻¹	< 1e-05 s⁻¹	< 1e-05 s⁻¹	–	< 1e-05 s⁻¹
A6U C34U C58U	< 1e-05 s⁻¹	–	–	–	–
C11U U69G	5.87e-05 ± 1.4e-05 s⁻¹	7.55e-05 ± 2.7e-05 s⁻¹	0.000286 ± 6.5e-05 s⁻¹	9.51e-05 ± 2.1e-05 s⁻¹	5.87e-05 ± 8.8e-06 s⁻¹
A6G G38C	< 1e-05 s⁻¹	< 1e-05 s⁻¹	< 1e-05 s⁻¹	< 1e-05 s⁻¹	< 1e-05 s⁻¹
A6G A15C G35A	< 1e-05 s⁻¹	–	–	–	< 1e-05 s⁻¹
C8G U54A C67A	< 1e-05 s⁻¹	–	–	–	–
A15U G29U C71G	6.19e-05 ± 2.4e-05 s⁻¹	–	–	–	0.000144 ± 2.7e-05 s⁻¹
A52U G63U	< 1e-05 s⁻¹	< 1e-05 s⁻¹	–	–	< 1e-05 s⁻¹

Variant	self-cleavage kobs at 40 uM GlcN6P (glucosamine-6-phosphate [1])	self-cleavage kobs at 160 uM GlcN6P (glucosamine-6-phosphate [2])	self-cleavage kobs at 640 uM GlcN6P (glucosamine-6-phosphate [3])	self-cleavage kobs at 2500 uM GlcN6P (glucosamine-6-phosphate [4])	self-cleavage kobs at 10000 uM GlcN6P (glucosamine-6-phosphate [5])
G9C C34G	< 1e-05 s⁻¹	< 1e-05 s⁻¹	< 1e-05 s⁻¹	< 1e-05 s⁻¹	< 1e-05 s⁻¹
A15G G60C	< 1e-05 s⁻¹	–	–	–	–
A1G C34U A52U	< 1e-05 s⁻¹	–	–	–	–
C8A A15U U31A G41U C50U G51U G62A	< 1e-05 s⁻¹	–	–	< 1e-05 s⁻¹	< 1e-05 s⁻¹
G32C A48C G60C	< 1e-05 s⁻¹	–	–	–	–
U55A C61G	< 1e-05 s⁻¹	–	–	–	< 1e-05 s⁻¹
A6U A36U C70U	< 1e-05 s⁻¹	–	–	–	–
G7C A14G G38C U54G	< 1e-05 s⁻¹	–	–	–	–
G9U A64G	< 1e-05 s⁻¹	< 1e-05 s⁻¹	–	–	< 1e-05 s⁻¹
G32C G41C	< 1e-05 s⁻¹	< 1e-05 s⁻¹	< 1e-05 s⁻¹	< 1e-05 s⁻¹	< 1e-05 s⁻¹
G7A U30A	< 1e-05 s⁻¹	< 1e-05 s⁻¹	–	< 1e-05 s⁻¹	–
C10G C50U U54G U56G	< 1e-05 s⁻¹	–	–	–	< 1e-05 s⁻¹
G32C G63A	< 1e-05 s⁻¹	< 1e-05 s⁻¹	< 1e-05 s⁻¹	< 1e-05 s⁻¹	–
A1U U2G A3G A5U A6C G7C C8A G29C G32U G60U	< 1e-05 s⁻¹	–	–	–	–
A15G G29A U55G	5.71e-05 ± 1.7e-05 s⁻¹	–	–	–	0.00317 ± 0.00043 s⁻¹
C34G A39U C70U	< 1e-05 s⁻¹	–	–	–	–
A12G A36U C50G C70U C71U	0.000102 ± 4.6e-05 s⁻¹	–	–	–	5.91e-05 ± 1.9e-05 s⁻¹
G29U G62U	< 1e-05 s⁻¹	< 1e-05 s⁻¹	< 1e-05 s⁻¹	< 1e-05 s⁻¹	< 1e-05 s⁻¹
G7C G9U	< 1e-05 s⁻¹	–	< 1e-05 s⁻¹	–	< 1e-05 s⁻¹
C8A C71A	< 1e-05 s⁻¹	< 1e-05 s⁻¹	< 1e-05 s⁻¹	< 1e-05 s⁻¹	< 1e-05 s⁻¹
C11A A15G C58G C68A	8.59e-05 ± 2.2e-05 s⁻¹	–	–	–	0.000145 ± 2.6e-05 s⁻¹
G40U	0.000216 ± 1.5e-05 s⁻¹	0.00045 ± 1.9e-05 s⁻¹	0.00199 ± 0.0002 s⁻¹	0.00539 ± 0.00024 s⁻¹	–
A15C C71A	3.98e-05 ± 9.4e-06 s⁻¹	8.22e-05 ± 3.4e-05 s⁻¹	0.000136 ± 5.9e-05 s⁻¹	0.000291 ± 7.5e-05 s⁻¹	0.00151 ± 0.00019 s⁻¹
G9A C70U	< 1e-05 s⁻¹	–	< 1e-05 s⁻¹	–	2.28e-05 ± 1e-05 s⁻¹
G44C C50A U55A C70U	< 1e-05 s⁻¹	–	–	–	–

Variant	self-cleavage kobs at 40 uM GlcN6P (glucosamine-6-phosphate [1])	self-cleavage kobs at 160 uM GlcN6P (glucosamine-6-phosphate [2])	self-cleavage kobs at 640 uM GlcN6P (glucosamine-6-phosphate [3])	self-cleavage kobs at 2500 uM GlcN6P (glucosamine-6-phosphate [4])	self-cleavage kobs at 10000 uM GlcN6P (glucosamine-6-phosphate [5])
G13C A33C G41U	< 1e-05 s⁻¹	< 1e-05 s⁻¹	< 1e-05 s⁻¹	< 1e-05 s⁻¹	< 1e-05 s⁻¹
A6C C11G U30G G35U C50G C58G	0.00011 ± 2.3e-05 s⁻¹	–	–	0.000242 ± 4.4e-05 s⁻¹	0.000175 ± 5.1e-05 s⁻¹
G35A A36G	< 1e-05 s⁻¹	< 1e-05 s⁻¹	< 1e-05 s⁻¹	< 1e-05 s⁻¹	–
C50G C58A C67U	3.98e-05 ± 1.7e-05 s⁻¹	–	–	–	5.82e-05 ± 1.9e-05 s⁻¹
A6U A12G A42C A52U A64G C68G	< 1e-05 s⁻¹	–	–	< 1e-05 s⁻¹	< 1e-05 s⁻¹
U47C U57G	< 1e-05 s⁻¹	–	–	–	–
A15G G41A U57G	< 1e-05 s⁻¹	–	–	–	–
A6G U57C	< 1e-05 s⁻¹	< 1e-05 s⁻¹	< 1e-05 s⁻¹	< 1e-05 s⁻¹	–
G13U U45C	< 1e-05 s⁻¹	< 1e-05 s⁻¹	–	–	6.21e-05 ± 1.4e-05 s⁻¹
G9C G66U	< 1e-05 s⁻¹	< 1e-05 s⁻¹	< 1e-05 s⁻¹	< 1e-05 s⁻¹	< 1e-05 s⁻¹
U31G C61U	< 1e-05 s⁻¹	< 1e-05 s⁻¹	< 1e-05 s⁻¹	< 1e-05 s⁻¹	–
A14C U49A	< 1e-05 s⁻¹	–	< 1e-05 s⁻¹	–	< 1e-05 s⁻¹
G13U G32U G37A G40C	< 1e-05 s⁻¹	–	–	–	–
U54A U55C	0.00104 ± 0.00016 s⁻¹	0.00215 ± 0.00046 s⁻¹	0.00479 ± 0.001 s⁻¹	0.0235 ± 0.0076 s⁻¹	0.0628 ± 0.022 s⁻¹
C11A G44U U54C	< 1e-05 s⁻¹	–	–	< 1e-05 s⁻¹	–
C10A U49A C61U G62U	< 1e-05 s⁻¹	–	–	–	–
A42C U57A	< 1e-05 s⁻¹	–	< 1e-05 s⁻¹	< 1e-05 s⁻¹	< 1e-05 s⁻¹
C8A C16U U45C G62U C70A	< 1e-05 s⁻¹	–	–	–	–
A15U G43U	< 1e-05 s⁻¹	< 1e-05 s⁻¹	< 1e-05 s⁻¹	–	< 1e-05 s⁻¹
U45C C61G	< 1e-05 s⁻¹	< 1e-05 s⁻¹	< 1e-05 s⁻¹	< 1e-05 s⁻¹	< 1e-05 s⁻¹
G43C C50A U65C C68U	< 1e-05 s⁻¹	–	–	–	< 1e-05 s⁻¹
A39G U56C C71U	7.63e-05 ± 2.3e-05 s⁻¹	–	–	–	–
A39G A42C U69G C70A	< 1e-05 s⁻¹	–	–	–	–
A6C G32C C58G	< 1e-05 s⁻¹	–	< 1e-05 s⁻¹	< 1e-05 s⁻¹	–
U55A U57C U69C C70U	< 1e-05 s⁻¹	–	–	–	–

Variant	self-cleavage kobs at 40 uM GlcN6P (glucosamine-6-phosphate [1])	self-cleavage kobs at 160 uM GlcN6P (glucosamine-6-phosphate [2])	self-cleavage kobs at 640 uM GlcN6P (glucosamine-6-phosphate [3])	self-cleavage kobs at 2500 uM GlcN6P (glucosamine-6-phosphate [4])	self-cleavage kobs at 10000 uM GlcN6P (glucosamine-6-phosphate [5])
A15G G43U A53C	< 1e-05 s⁻¹	–	–	–	–
A33C U54A U57C	< 1e-05 s⁻¹	–	–	< 1e-05 s⁻¹	–
A33G G35C C70G	0.000358 ± 8.4e-05 s⁻¹	–	–	–	0.000163 ± 4.5e-05 s⁻¹
U30G A33U U56A G63U G66U	< 1e-05 s⁻¹	–	–	–	< 1e-05 s⁻¹
U54C C68U	0.000265 ± 3.7e-05 s⁻¹	0.000635 ± 8.4e-05 s⁻¹	0.000868 ± 0.00023 s⁻¹	0.00216 ± 0.0005 s⁻¹	0.0106 ± 0.0023 s⁻¹
G41U G62C C70U	< 1e-05 s⁻¹	–	< 1e-05 s⁻¹	–	< 1e-05 s⁻¹
C11A U57A G60U	< 1e-05 s⁻¹	–	–	–	–
G7C G41U C50G	< 1e-05 s⁻¹	–	–	–	–
A6U C11U G26U U56C	< 1e-05 s⁻¹	–	–	–	–
A6U C11U G44U	< 1e-05 s⁻¹	–	< 1e-05 s⁻¹	< 1e-05 s⁻¹	< 1e-05 s⁻¹
G7U G35C U57A	< 1e-05 s⁻¹	–	–	< 1e-05 s⁻¹	–
G29C U47G C68G	7.83e-05 ± 2.3e-05 s⁻¹	–	–	–	3.71e-05 ± 1.3e-05 s⁻¹
C10U C50U U57C	< 1e-05 s⁻¹	–	–	–	–
C8U C16G C50G	0.000158 ± 3.8e-05 s⁻¹	–	–	–	8.29e-05 ± 1.9e-05 s⁻¹
G7U G38U C71A	< 1e-05 s⁻¹	–	–	–	< 1e-05 s⁻¹
A36C G43A U47C	< 1e-05 s⁻¹	–	–	–	–
A48C G51U C67U	< 1e-05 s⁻¹	–	–	–	< 1e-05 s⁻¹
G13C G35C A39U	< 1e-05 s⁻¹	–	–	–	–
C11G G41A	< 1e-05 s⁻¹	–	< 1e-05 s⁻¹	< 1e-05 s⁻¹	< 1e-05 s⁻¹
A6C A14C A39G C50A	< 1e-05 s⁻¹	–	–	–	–
G29C C67U	2.43e-05 ± 8.3e-06 s⁻¹	–	0.000126 ± 1.3e-05 s⁻¹	0.000201 ± 2.6e-05 s⁻¹	0.000975 ± 0.0002 s⁻¹
C11G C16A U69G	6.17e-05 ± 2.3e-05 s⁻¹	–	–	–	5.6e-05 ± 1.7e-05 s⁻¹
C16U G63C	< 1e-05 s⁻¹	–	< 1e-05 s⁻¹	–	< 1e-05 s⁻¹
U56A G62C	< 1e-05 s⁻¹	–	–	< 1e-05 s⁻¹	< 1e-05 s⁻¹
